Data on three variants can be found in paper PMC9329571, “Regulation of TIA-1 Condensates: Zn2+ and RGG Motifs Promote Nucleic Acid Driven LLPS and Inhibit Irreversible Aggregation”.

B1: TIA-1 RRM2,3 (amino acids 93-274), wild type [not stated] / itself (parent)
chain: NHFHVFVGDLSPEITTEDIKAAFAPFGRISDARVVKDMATGKSKGYGFVSFFNKWDAENAIQQMGGQWLGGRQIRTNWATRKPPAPKSTYESNTKQLSYDEVVNQSSPSNCTVYCGGVTSGLTEQLMRQTFSPFGQIMEIRVFPDKGYSFVRFNSHESAAHAIVSVNGTTIEGHVVKCYWGK

Variants of B1 are the subject of this assay. Nature of the assay: turbidity (A385 nm). The conditions noted are these: with itself; TIA-1:ZnCl2 ratio 1:8; 20 µM protein; 20 mM HEPES, 50 mM NaCl, 1 mM TCEP, pH 6.9, 25°C, within 30 min incubation under shaking; read off a plot.
With chain 1 H2A, the response is 0.058 A.U.

With chain 1 H2A H4A, the response was determined as 0.056 A.U.

In the case of chain 1 H4A, the response is 0.072 A.U.
